Measurements reported in the RNAGym collection of RNA variant scans (doi:10.1073/pnas.2313332121).

B1: TPR t1 (parent)
chain: GACCAAUCUGCCCUCAGAGCUCGAGAACAUCUUCGGAUGCAGAGGAGGCAGGCUUCGGUGGCGCGAUAGCGCCAACGUCCUCAACCUCCAAUGCAUCCCACCACAUGAUGAUGCCUGAAGAGCCUUGGUUUUUUG

Variants of: B1
Test: polymerase ribozyme fitness, log enrichment relative to wild type (log ratio); higher = more active; in vitro selection for triplet polymerase activity
In short: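 Fitness measures genotype enrichment against wild-type enrichment on a logarithmic scale, with inverse-variance-weighted averaging of replicates. The logarithm is base 2, and genotypes were kept only with ≥10 input reads and ≥1 read per output in Illumina sequencing. The sequenced libraries came from one triplicate in vitro selection round, including frozen incubation at −7 °C, of PCR-built, transcribed mutant libraries of each subunit of a heterodimeric triplet polymerase ribozyme.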

Row | Variant | polymerase ribozyme fitness (log ratio)
1 | GACCAAUCUGCCCUCAGAGCUCGAGAACAUCUUCGGAUGCAGAGGAGGCAGGCUUCGGUGGCGCGUUAGCGCCAACGUCCUCAACCUCCAAUGCAUCUCACCACAUGAUGAUGCCUGAAGAGCCUUGGUUUUUUG [A66U C98U] | -1.9
2 | GACCAAUCUGCCCUCAGAGCUCGAGAACAUCUUCGGAUGCAGAGGAGGCAGGCUUCGGUGGCGCGAAAUCGCCAACGUCCUCAACCUCCAAUGCAUCCCACCACAUGAUGAUGCCUGAAGAGCCUUGGUUUUUUG [U67A G69U] | -5.08
3 | GACCAAUCUGCCCUCAGAGCUCGAGAACAUCUUCGGAUGCAGAGGAGGCAGGCUUCGGUGGCGCGAUGCCGCCAACGUCCUUAACCUCCAAUGCAUCCCACCACAUGAUGAUACCUGAAGAGCCUUGUUUUUUUG [A68G G69C C82U G113A G128U] | -4.89
4 | GACCAAUCUGCCCUCAGAGCUCGAGAACAUCUUCGGAUGCAGAGGAGGCAGGCUUCGGUGGCGCGAUUGCGCCAACGUCCUCAACCUCCAAUGCAUCCCACCACAUGAUGAUGCCUCAAGAGCCUUGGUUUUUUG [A68U G117C] | -6.92
5 | GACCAAUCUGCCCUCAGAGCUCGAGAACAUCUUCGGAUGCAGAGGAGGCAGGCUUCGGUGGCGCGAUAACGCCGACGUCCUCAACCUCCAAUGCAUCCCACCACAUGAUGAUGCCUGAAGAGCCUUGGUUUUUUG [G69A A74G] | -5.42
6 | GACCAAUCUGCCCUCAGAGCUCGAGAACAUCUUCGGAUGCAGAGGAGGCAGGCUUCGGUGGCGCGAAAGCGCCAACGUCCUCAACCUCCAAUGCAUCCCACCACAUGAUGAUGCCUGAAGAGUCUUGGUUUUUUG [U67A C123U] | -5.81
7 | GACCAAUCUGCCCUCAGAGCUCGAGAACAUCUUCGGAUGCAGAGGAGGCAGGCUUCGGUGGCGCGAUGGCGCUAACGUCCUCAACCUCCAAUGCAUCCCACCACAUGAUGAUGCCUGAAGAGCCUUGGUUUUUUG [A68G C73U] | -2.42
8 | GACCAAUCUGCCCUCAGAGCUCGAGAACAUCUUCGGAUGCAGAGGAGGCAGGCUUCGGUGGCGCGUUAGCGCCAACGUCCUCAAUCUCCAAUGCAUCCCACCACAUGAUGAUGCCUAAAGAGCCUUGGUUUUUUG [A66U C85U G117A] | -4.29
9 | GACCAAUCUGCCCUCAGAGCUCGAGAACAUCUUCGGAUGCAGAGGAGGCAGGCUUCGGUGGCGCGAUAACGCCAACGUACUCAACCUCCAAUGCAUCCCACCACAUGAUGAUGCCUGAAGAGCCUUGGUUUUUUG [G69A C79A] | -3.99
10 | GACCAAUCUGCCCUCAGAGCUCGAGAACAUCUUCGGAUGCAGAGGAGGCAGGCUUCGGUGGCGCGAUGGCGCCAACGUCCUCAACCUCCAAUGCAUCCCACCACAUGAUGAUGCCUGAAGAGCCAUGGUUUUUUG [A68G U125A] | -3.61
11 | GACCAAUCUGCCCUCAGAGCUCGAGAACAUCUUCGGAUGCAGAGGAGGCAGGCUUCGGUGGCGCGUUAGCGCCAACGUCCUCAACCUCCAAUGAAUCCCACCACAUGAUGAUGCCUGAAGAGCCUUGGUUUUUUG [A66U C94A] | -2.12
12 | GACCAAUCUGCCCUCAGAGCUCGAGAACAUCUUCGGAUGCAGAGGAGGCAGGCUUCGGUGGCGCGAUGGCGCCAACGUCCUCAGCCUCCAAUGCAUCCCACCACAUGAUGAUGCCUGAAGAGCCUUGGUUUUUUG [A68G A84G] | -3.98
13 | GACCAAUCUGCCCUCAGAGCUCGAGAACAUCUUCGGAUGCAGAGGAGGCAGGCUUCGGUGGCGCGAUAACGCCAACGUCCUCAUCCUCCAAUGUAUCCCACCACAUGAUGAUGCCUGAAGAGCCUUGGUUUUUUG [G69A A84U C94U] | -3.36
14 | GACCAAUCUGCCCUCAGAGCUCGAGAACAUCUUCGGAUGCAGAGGAGGCAGGCUUCGGUGGCGCGAUAACGCCAACGUCCUCAAACUCCAAUGCAUCCCACCACAUGAUGAUGCCUGAAGAGCCUUGGUUUUUUG [G69A C85A] | -4.3
15 | GACCAAUCUGCCCUCAGAGCUCGAGAACAUCUUCGGAUGCAGAGGAGGCAGGCUUCGGUGGCGCGACAACGCCAACGUCCCCAACCUCCAAUGCAUCCCACCAAAUGAUCACGCCUGAAGAGCCUUGGUUUUUUG [U67C G69A U81C C104A G110C U112C] | -8.47
16 | GACCAAUCUGCCCUCAGAGCUCGAGAACAUCUUCGGAUGCAGAGGAGGCAGGCUUCGGUGGCGCGUUAGCGCCAACGCCCUCAACCUCCAAUGCAUCCCACCACAUGAUGAUGCCUGAAGAGCUUUGGUUUUUUG [A66U U78C C124U] | 0.592
17 | GACCAAUCUGCCCUCAGAGCUCGAGAACAUCUUCGGAUGCAGAGGAGGCAGGCUUCGGUGGCGCGAUAACGCCAACGUCCUCAACCUCCAAUGCAUCCCACAACAUGAUGAGGCCUGAAGAGCCUUGGUUUAUUG [G69A C102A U112G U132A] | -5.6
18 | GACCAAUCUGCCCUCAGAGCUCGAGAACAUCUUCGGAUGCAGAGGAGGCAGGCUUCGGUGGCGCGAUAACGCUAACGUCCUCAACCUCCAAUGCAGCCCACCACAUGAUGAUGCCUGAAGAGCCUUGGUUUUUUG [G69A C73U U96G] | -3.55
19 | GACCAAUCUGCCCUCAGAGCUCGAGAACAUCUUCGGAUGCAGAGGAGGCAGGCUUCGGUGGCGCGAUAACGCCAACGUCCUCAACAUCCAAUGCAUCCUACCACAUGAUCAUGCCUGAAGAGCCUUGGUUUUUUG [G69A C86A C99U G110C] | -6.84
20 | GACCAAUCUGCCCUCAGAGCUCGAGAACAUCUUCGGAUGCAGAGGAGGCAGGCUUCGGUGGCGCGAUGGCGCCAACGUCCUUAACCUCCAAUGCAUCCCACCACAUGAUGAUGCCUGAAGAGCCUUGGUUUUUUG [A68G C82U] | -2.87
21 | GACCAAUCUGCCCUCAGAGCUCGAGAACAUCUUCGGAUGCAGAGGAGGCAGGCUUCGGUGGCGCGAUAACGCCAACGUCCUCAACGUCCAAUGCAUCCCACCACAUGAUGAUGCCUGAAGUGCCUUGGUUUUUUG [G69A C86G A121U] | -1.34

Row | Variant | polymerase ribozyme fitness (log ratio)
22 | GACCAAUCUGCCCUCAGAGCUCGAGAACAUCUUCGGAUGCAGAGGAGGCAGGCUUCGGUGGCGCGAGAGCGCCAACGUCGUCAACCUCCAAUGCAUCCCACCACAUGAUGAUACCUGAAGAGCCUUGGUUUUUUG [U67G C80G G113A] | -6.86
23 | GACCAAUCUGCCCUCAGAGCUCGAGAACAUCUUCGGAUGCAGAGGAGGCAGGCUUCGGUGGCGCGUUAGCGCCAACGUCCUCAACCUCCAAUGCAUCCCACCACAUGAUGAUGCCUGAAGAGCCUUGGUGUUUUG [A66U U130G] | -1.71
24 | GACCAAUCUGCCCUCAGAGCUCGAGAACAUCUUCGGAUGCAGAGGAGGCAGGCUUCGGUGGCGCGAUCGCGCCAACGUCCUCAACCUCCAAUGCAUCCCACCACAUGAUGAUGCCAGAUGAGCUUUGGUUUUUUG [A68C U116A A119U C124U] | -7.83
25 | GACCAAUCUGCCCUCAGAGCUCGAGAACAUCUUCGGAUGCAGAGGAGGCAGGCUUCGGUGGCGCGUUAGCGCCAACGUCCUCAACCUCCAAUGCAUCCCACCACAUGAUGAUGCCUGAAGAGCCAUGGUUUUUUG [A66U U125A] | -2.11
26 | GACCAAUCUGCCCUCAGAGCUCGAGAACAUCUUCGGAUGCAGAGGAGGCAGGCUUCGGUGGCGCGAUAACGCCAACGUCCUCAACCUCGAAUGCAUCCCACCACAUGAUGAUGCCUGAAGAGCCUUGGUUUUUUG [G69A C89G] | -5.32
27 | GACCAAUCUGCCCUCAGAGCUCGAGAACAUCUUCGGAUGCAGAGGAGGCAGGCUUCGGUGGCGCGAUAACGCCAACGUCCUGAACCUCCAAUGCAUCCCACCACAUGAUGAUGCCUGAAGAGCCUUGGUUUUUUG [G69A C82G] | -3.32
28 | GACCAAUCUGCCCUCAGAGCUCGAGAACAUCUUCGGAUGCAGAGGAGGCAGGCUUCGGUGGCGCGUUAGCGCCAACGUCCUCAACCUCCAAUGCAUCCCACCACAUGAUGAUGCCUGAAGAGACUUGGUUUUUUG [A66U C123A] | 0.285
29 | GACCAAUCUGCCCUCAGAGCUCGAGAACAUCUUCGGAUGCAGAGGAGGCAGGCUUCGGUGGCGCGAUCGCGCCAACGUCCUCAUCCUCCAAUGCAUCCCACCACAUGAUGAGGCCUCAAGAGCCUUGGUUUUUUG [A68C A84U U112G G117C] | -7.28
30 | GACCAAUCUGCCCUCAGAGCUCGAGAACAUCUUCGGAUGCAGAGGAGGCAGGCUUCGGUGGCGCGAUAACGCGAACGUCCUCAACCUCCAAUGCAUCCCACCACAUGAUGAUGCCUGAAUAGCCUUGGUUUUUUG [G69A C73G G120U] | -5.64
31 | GACCAAUCUGCCCUCAGAGCUCGAGAACAUCUUCGGAUGCAGAGGAGGCAGGCUUCGGUGGCGCGUUAGCGCCAACGUCCUCAACCUCCAAUGCAUCCCACCACAAGAUGAUGCCUAAAGAGCCUUGGUUUUUUG [A66U U106A G117A] | -2
32 | GACCAAUCUGCCCUCAGAGCUCGAGAACAUCUUCGGAUGCAGAGGAGGCAGGCUUCGGUGGCGCGAUAACGCCAACGUCCUCAACCUCCAAUGCAUCCCACCACAUGAUGAUGCCUGAAGAGGCUUGGUUUUUUG [G69A C123G] | -0.288
33 | GACCAAUCUGCCCUCAGAGCUCGAGAACAUCUUCGGAUGCAGAGGAGGCAGGCUUCGGUGGCGCGAUAACGCCAACGUCCUCAACCUCCAAUGCAUCCCACCACAUGAUGAUGCCUGAAGAGUCUUGGUUUUUUG [G69A C123U] | -0.983
34 | GACCAAUCUGCCCUCAGAGCUCGAGAACAUCUUCGGAUGCAGAGGAGGCAGGCUUCGGUGGCGCGAUAACGCCAACGUCCUCAACCUCCAAUGCAUCCCACCACAUGAUGAUGCCUGAAGAGACUUGGUUUUUUG [G69A C123A] | -1.81
35 | GACCAAUCUGCCCUCAGAGCUCGAGAACAUCUUCGGAUGCAGAGGAGGCAGGCUUCGGUGGCGCGUUAGCGCCAACGUCCUCAACCUCCAAUGCAUCCCACCACAUGAUGAUGACUGAAGAGCCUUGGUUUUUUG [A66U C114A] | -3.05
36 | GACCAAUCUGCCCUCAGAGCUCGAGAACAUCUUCGGAUGCAGAGGAGGCAGGCUUCGGUGGCGCGACAGCGCCAACGUCCUCAAUCUCCAAUGCAUCCCACCACAUGAUGAUGCCUGAAGAGCCUUGGUUUUUUG [U67C C85U] | -4.67
37 | GACCAAUCUGCCCUCAGAGCUCGAGAACAUCUUCGGAUGCAGAGGAGGCAGGCUUCGGUGGCGCGUUAGCGCCAACGUCCUCAACCUCCAAUCCAUCCCACCACAUGAUGAUGCUCGAAGAGCCUUGGUUUUUUG [A66U G93C C115U U116C] | -5.96
38 | GACCAAUCUGCCCUCAGAGCUCGAGAACAUCUUCGGAUGCAGAGGAGGCAGGCUUCGGUGGCGCGAUGGCGCCAACGUCCUCAACCUCCAAUGCAUCCCACCACAAGAUGAUGCCUGAAGAGCCUUGGUUUUUUG [A68G U106A] | -3.22
39 | GACCAAUCUGCCCUCAGAGCUCGAGAACAUCUUCGGAUGCAGAGGAGGCAGGCUUCGGUGGCGCGAUGGCGCCAACGUCCUCAACUUCCAAUGCAUCCCACCACAUGAUGAUGCCUGAAGAGCCUUGGUUUUUUG [A68G C86U] | -2.68
40 | GACCAAUCUGCCCUCAGAGCUCGAGAACAUCUUCGGAUGCAGAGGAGGCAGGCUUCGGUGGCGCGUUAGCGCCAACGUCCUCAACCUCCAAUCCAUCCCACCACAUGAUGAUGGCUGAAGAGCCUUGGUUUUUUG [A66U G93C C114G] | -5.41
41 | GACCAAUCUGCCCUCAGAGCUCGAGAACAUCUUCGGAUGCAGAGGAGGCAGGCUUCGGUGGCGCGAUUGCGCCAACGUCCUCAACCUCCAAUGCAUACCACCACAUGAUGAUGCCUGAACAGCCUUGGUUUUUUG [A68U C97A G120C] | -6.59
42 | GACCAAUCUGCCCUCAGAGCUCGAGAACAUCUUCGGAUGCAGAGGAGGCAGGCUUCGGUGGCGCGAUGGCGCCAACGUCCUCAACCUCCAAUGCAUCCCACCACAUGAUGAUGCCUGAAGAACCUUGGUUUUUUG [A68G G122A] | -2.55
